Results: publication PMC3070753, “Biochemical and Structural Properties of Cyanases from Arabidopsis thaliana and Oryza sativa” (PLoS ONE, 2011)

B1: His-tagged recombinant AtCYN (enzyme, Arabidopsis thaliana, UniProt O22683 1-168, looked up)
chain: MEAAKKQSVTNQLLAVKSASGKTFSQLAAETGLTNVYVAQLLRRQAQLKPDTVPKLKEALPALTDELIGDMMSPPWRSYDPNLIQEPTIYRLNEAVMHFGESIKEIINEDFGDGIMSAIDFYCSVDKIKGVDGNNRVVVTLDGKYLSHSEQRTENMVSRLNLKGGTSE
notes: cyanase (AtCYN) of Arabidopsis thaliana, 168 aa, NP_188991; cDNA amplified with primers from the start codon to the stop codon, cloned into pET15b; pET15b construct (BamH I and Xho I sites); calculated monomer with tag 21.9 kDa; also called His:AtCYN; source: E. coli BL21 (DE3), purified (Ni2+ chelating column, Superdex 200); copies: 10
B2: His-tagged recombinant OsCYN (enzyme, Oryza sativa, UniProt Q9FWK4 1-168, looked up)
chain: MEGGGGERAAGVVRRLMAAKAESRKSFSEIGEEAGLTNVYVAQLLRRQAQLKPETAPALRAAVPGLTDDLVALMMEPPFRSYHPDIVHEPAIYRLNEAVMHFGESIKEIINEEFGDGIMSAIDFYCSVDKVQGADGKDRVVVTFDGKYLPYSEQRSDHMMSRLTRKTS
notes: cyanase (OsCYN) of Oryza sativa (cv. Zhonghua 11), 168 aa, NP_001064827; cDNA amplified with primers from the start codon to the stop codon, cloned into pET15b; pET15b construct (BamH I and Xho I sites); calculated monomer with tag 22.0 kDa; also called His:OsCYN; source: E. coli BL21 (DE3), purified (Ni2+ chelating column, Superdex 200); copies: 10

Tests used:
purified protein [1] = substrate: O=C(O)O; assay: purified protein; details: 5 mM KCNO, pH 7.7, 27°C
[2] = biological target: the molecule itself; assay: SEC; His-tagged proteins after Ni2+ affinity chromatography on a Superdex 200 10/300 GL column; molecular weight calculated against high molecular weight standards
purified protein [3] = substrate: N#CO; assay: purified protein; format: biochemical, Arabidopsis thaliana; details: 5 mM NaHCO3, pH 7.7, 27°C
purified protein [4] = substrate: N#CO; assay: purified protein; format: biochemical, Oryza sativa; details: 5 mM NaHCO3, pH 7.7, 27°C

| Protein | Km (purified protein [1]) [µM] | stoichiometry N [2] | Km (purified protein [3]) [µM] | Km (purified protein [4]) [µM] |
| --- | --- | --- | --- | --- |
| B1 | 790 | 10 | 940 |  |
| B2 | 630 | 10 |  | 7380 |
